Source: publication PMC1817651, “Ets-2 and C/EBP-beta are important mediators of ovine trophoblast Kunitz domain protein-1 gene expression in trophoblast”

B1: TKDP-1/5 (dsDNA)
DNA 1: CAGTGTGTCCATCCTCAGCATCCTCAGGAGCCCTC
DNA 2: GAGGGCTCCTGAGGATGCTGAGGATGGACACACTG
B2: TKDP-1/6 (dsDNA)
DNA 1: AGGAGCCCTCCTGCAAGGCC
DNA 2: GGCCTTGCAGGAGGGCTCCT
B3: TKDP-1/2 (dsDNA)
DNA 1: CATGGGTAGGTAGGGAGGTTATGCAATAAACAGGACTGACTCAACTCCTCC
DNA 2: GGAGGAGTTGAGTCAGTCCTGTTTATTGCATAACCTCCCTACCTACCCATG
B4: TKDP-1/3 (dsDNA)
DNA 1: TCCTCCCCTTGCCCACTCCCCTCCTTATCACCTGATCTCACGACTCA
DNA 2: TGAGTCGTGAGATCAGGTGATAAGGAGGGGAGTGGGCAAGGGGAGGA
B5: TKDP-1/1 (dsDNA)
DNA 1: ACAGATGCAGGAGGCATGGG
DNA 2: CCCATGCCTCCTGCATCTGT
B6: TKDP-1/4 (dsDNA)
DNA 1: CTGATCTCACGACTCAGCCAGAATATTAAAAGCTC
DNA 2: GAGCTTTTAATATTCTGGCTGAGTCGTGAGATCAG
B7: Ets-2 consensus (dsDNA)
DNA 1: CTAGGACCGGAAGTGGGAGT
DNA 2: ACTCCCACTTCCGGTCCTAG

Each binder was assayed against T1, ovEts-2-GST fusion (Ovis aries, UniProt A0ACI6RFA5 364-444) (assay: competition EMSA; 250-fold excess vs N1; EMSA: 35 fmol probe, 2 ug Ets-2-GST or 10 ug JEG-3 extract, buffer per cited ref 23; pull-down: extract in 25 mM Tris-HCl pH 7.5, 150 mM NaCl, 0.5% Triton X-100, 0.5 mM DTT, 4 C overnight). Settings: protein: recombinant; tags: GST; blunt; only sense strand given.
T1 sequence (A0ACI6RFA5 entry or part of it): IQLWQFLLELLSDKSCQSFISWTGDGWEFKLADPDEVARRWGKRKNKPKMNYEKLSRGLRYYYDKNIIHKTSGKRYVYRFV

| Binder | binding result |
| --- | --- |
| B1 | no binding |
| B2 | no binding |
| B3 | no binding |
| B4 | no binding |
| B5 | no binding |
| B6 | no binding |

Each binder was assayed against T1, ovEts-2-GST fusion (assay: EMSA; anti-Ets-2 supershift; EMSA: 35 fmol probe, 2 ug Ets-2-GST or 10 ug JEG-3 extract, buffer per cited ref 23; pull-down: extract in 25 mM Tris-HCl pH 7.5, 150 mM NaCl, 0.5% Triton X-100, 0.5 mM DTT, 4 C overnight). Settings: protein: recombinant; tags: GST; label: 32P; blunt; only sense strand given.

| Binder | binding result |
| --- | --- |
| B7 | binds |
